Columns and labels:
[1] = molecular target: T1, full length recombinant human EPO receptor (human, UniProt P19235 25-508); experiment: cell-based or functional assay
T1 sequence: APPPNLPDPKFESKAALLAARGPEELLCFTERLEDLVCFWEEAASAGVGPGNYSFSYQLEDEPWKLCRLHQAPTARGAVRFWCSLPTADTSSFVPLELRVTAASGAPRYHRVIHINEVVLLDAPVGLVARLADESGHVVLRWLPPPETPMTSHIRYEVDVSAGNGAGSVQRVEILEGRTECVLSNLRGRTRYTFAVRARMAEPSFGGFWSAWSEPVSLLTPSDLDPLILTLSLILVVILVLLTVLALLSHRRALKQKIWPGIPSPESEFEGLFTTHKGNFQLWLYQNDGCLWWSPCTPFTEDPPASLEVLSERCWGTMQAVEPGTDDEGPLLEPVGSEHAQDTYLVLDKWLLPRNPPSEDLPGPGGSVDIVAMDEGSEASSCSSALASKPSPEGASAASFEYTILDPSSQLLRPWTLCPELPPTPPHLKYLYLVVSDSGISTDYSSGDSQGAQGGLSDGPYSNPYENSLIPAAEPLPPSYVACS

peptide SE-3 = molecular target: T2, peptide SE-3 (human); experiment: ELISA on plate-coated peptide SE-3
T2 construct: also called SE-3 peptide
T2 peptide: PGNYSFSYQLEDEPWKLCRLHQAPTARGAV
Protocol: Plates were blocked for 30 minutes at room temperature with 100 ul of 5% BSA in PBS (Gibco (Invitrogen (Carlsbad, Calif.)) Cat.#10010). After removal of blocking solution, 50 ul of Ab12 at 5 ug/ml in PBS with 1% BSA was added to wells and plates were incubated at room temperature for 2 hours. Plates were washed three times using a Skatron 400 Plate Washer with PBS/0.05% Tween 20 and 50 ul of secondary antibody diluted in PBS/0.25% BSA/0.05% Tween 20 added to the wells. For Ab12, goat anti-human IgG (Fc)-HRP (Caltag (Burlingame, Calif.) Cat.#H10507) diluted 1:1000 was used and for Ab 71A (available from the American Type Culture Collection HB 11689, also described in U.S. Pat. No. 6,319,499), goat anti mouse IgG (Fc)-HRP (Jackson Laboratories (West Grove, Pa.) Cat.#115-035-164) diluted 1:5000 was used. After a 1 hour incubation at room temperature, plates were washed three times as before and 50 ul of OPD Developing Reagent (Sigma #P9187) added to each well. Color development was stopped by addition of 50 ul of 1N HCl to the wells and optical density measured at 490 nm on a Victor 1420 Multi-Label Counter.

[2] = molecular target: T3, soluble human EPO receptor (human, UniProt P19235 25-250); experiment: SPR (Biacore 2000), antibody immobilized on chip, soluble receptor 10-200 nM injected
T3 construct: extracellular domain; Printed only as 'soluble human EPO receptor'
T3 sequence (looked up): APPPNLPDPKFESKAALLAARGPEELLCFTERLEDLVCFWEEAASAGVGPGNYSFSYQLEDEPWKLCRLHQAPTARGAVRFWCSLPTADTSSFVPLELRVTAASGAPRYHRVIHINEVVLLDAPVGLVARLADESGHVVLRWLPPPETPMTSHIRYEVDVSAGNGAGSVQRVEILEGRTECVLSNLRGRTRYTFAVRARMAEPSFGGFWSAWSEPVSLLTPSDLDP
Protocol: Immobilizations of antibody were performed using the default immobilization program in the Biacore software package. Antibodies were diluted to 10 ug/mL in the supplied acetate buffers to prescreen for the appropriate pH at which to conduct the immobilizations. For immobilizations, antibodies were diluted into the appropriate acetate buffer (10 mM acetate pH 4.0) and coupled directly to the chip surface using standard EDC chemistry at three different protein levels (500, 1000, and 1500 RU). The fourth flow cell was mock coupled with EDC to cap the carboxyl groups and provide a background surface as a negative control.
Binding studies were performed by successive injections of varying concentrations of soluble human EPO receptor over the chip surface (500 RU immobilized protein). […]
Data were fit to the models available in the BiaEvaluation 3.0.2 software package (Biacore). […] Dissociation constants were calculated directly from fitting to the Langmuir binding model. For the bivalent analyte model, the dissociation constants were calculated indirectly using the calculated values for the kinetic dissociation and kinetic association constants, kd and kₐ.

[3] = molecular target: T4, biotinylated EpoR (Abbott CHO cell derived ref.# RB69084:4) (UniProt P19235 25-250, limits assumed, biotinylated with biotin-NHS (sites not given)); experiment: ELISA, HEK 293 supernatant titrated 1:2 on biotin-EpoR captured on streptavidin plates
T4 construct: also called biotin EpoR; biotin-EpoR
T4 sequence (looked up): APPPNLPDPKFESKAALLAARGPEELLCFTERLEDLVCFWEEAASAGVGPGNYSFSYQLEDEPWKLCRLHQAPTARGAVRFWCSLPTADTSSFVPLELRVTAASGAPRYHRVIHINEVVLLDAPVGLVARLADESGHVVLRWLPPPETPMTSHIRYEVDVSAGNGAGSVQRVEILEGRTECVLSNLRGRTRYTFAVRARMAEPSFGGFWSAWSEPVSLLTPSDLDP

Row | Binder | proliferation of F36E cells after storage of Ab12 at 4 C, compared with the EPO control [1] [fold] | binding result (peptide SE-3) | Kd [2] [µM] | Binding (dilution of supernatant) [3]
1 | Ab12 (antibody, human IgG2, V domains shown, Human antibody from XenoMouse; also called ABT2-SCX-012; AB-ABT2-XG2-012) VH: QVQLQESGPGLVKPSETLSLTCTVSGASISSYYWSWIRQPPGKGLEWIGYIYYSGSTNYNPSLKSRVTISVDTSKNQFSLKLRSVTAADTAVYYCARERLGIGDYWGQGTLVTVSS VL: DIQLTQSPSSLSASVGDRVTITCRASQGIRNDLGWYQQKPGKAPKRLIYAASSLQSGVPSRFSGSGSGTEFTLTISSLQPEDFATYYCLQHNTYPPTFGQGTKVEIK | ~10 | no binding (tested: 5 ug/ml) | 0.0175 | 
2 | ABT2-SCX-254 (antibody, V domains shown) VH: QVQLVESGGGVVQPGRSLRLSCAASGFTFSSYGMHWVRQAPGKGLEWVAVIWFDGNNKFYADSVKGRFTISRDNSKNTLYLQMNSLRVEDTAVYYCARGGSYWDYWGQGTLVTVSS VL: DIVMTQTPLFSFVMIGQPASISCRSRQSLVHSDGNTYLNWLQQRPGQPPRLLIYKTSNRFSGVPDRFSGSGAGTDFTLKISRVEAEDVGVYYCMQATQFPITFGQGTRLEIK |  |  |  | 8 dilution 1:n
3 | ABT2-SCX-054 (antibody, V domains shown) VH: QVQLVESGGGVVQPGRSLRLSCAASGFTFSKYGMHWVRQAPGKGLEWVAVLWYDGSNKYYADSVKGRFTISRDNSKNTLYLQMNSLRAEDTAVYYCARGPYYFDYWGQGTLVTVSS VL: not shown |  |  |  | > 64 dilution 1:n
4 | ABT2-SCX-022 (antibody, V domains shown) VH: QVQLVESGGGVVQPGRSLRLSCAASGFTFSSYGMHWVRQAPGKGLEWVVVISYDGSNKYYADSVKGRFTISRDNSKNTLYLQMNSLRVEDTAVYYCARDHGGRYVYDYGMDVWGQGTTVTVSS VL: DIQMTQSPSSVSASVGDRVSITCRASQGISSWLAWYQQKPGKAPTLLIYAASSLQRGVPSRFSGSGSGTDFTLTISSLQPEDFATYFCQQANSFPFTFGPGTKVDIK |  |  |  | > 64 dilution 1:n
5 | ABT2-SCX-267 (antibody, V domains shown) VH: QVQLVESGGGVVQPGRSLRLSCAASGFTFSSYGMHWVRQAPGKGLEWVAVISYDGSNKYYADSVKGRFTISRDNSKNTLYLQMNSLRVEDTAVYYCAKDHGGRYVYDYGMDVWGQGTTVTVSS VL: DIQMTQSPSSVSASVGDRVSITCRASQGIGSWLAWYQQKPGQAPTLLIYAASSLQRGVPSRFSGSGSGTDFTLTINSLQPEDFATYFCQQANSFPFTFGPGTKVDVK |  |  |  | > 64 dilution 1:n
6 | Ab198 (antibody, human IgG2, V domains shown, Human antibody from XenoMouse) VH: QVQLVESGGGVVQPGRSLRLSCVASGFTFSSYGMHWVRQAPGKGLEWVAVISYDGSNKYYADSVKGRFTISRDNSKNTLYLQMNSLRVEDTAVYYCARDHGGRYVYDYGMDVWGQGTTVTVSS VL: DIQMTQSPSSVSASIGDRVSITCRASQGISSWLAWYQQKPGKAPTLLIYAASTLQRGVPSRFSGSGSGTDFTLTISSLQPEDFATYFCQQANSFPFTFGPGTKVDIK |  | no binding | 0.0139 | 

Source: patent publication US20040071694A1 (published 2004)
